{
  "source": "patent US20080305504",
  "key": {"[1]": {"system": "T1, hC3 peptide modified with Gly attached to a Cy5 dye at the N terminus", "T1 sequence": "KIIDEDLNSRALG"}, "[2]": {"system": "T2, fluorogenic composition Cy5-SEQ. ID. NO.: 1-Cy7Q", "T2 sequence": "KIIDEDLNSRALG"}},
  "data": [
    {"substance": "C3 convertase (in human plasma)", "values": [
      {"measurement": "cleavage of the Cy5-labelled peptide in human plasma in a Latex plate, by reverse phase HPLC at 670 nm", "setting": "[1]", "value": "A new peak was observed in addition to the original peak. The new peak represents the cleavage product."},
      {"measurement": "fluorescence intensity (excitation 623 nm, emission 676 nm), latex-activated plasma against plasma alone after subtracting the PBS control", "setting": "[2]", "value": "the signal enhancement due to Latex activation of complement was >100%"},
      {"measurement": "fluorescence intensity (excitation 623 nm, emission 676 nm), plasma incubated on latex coated polystyrene against plasma alone", "setting": "[2]", "value": "showed >50% enhancement in signal over the plasma alone sample"}
    ]}
  ]
}
